Laboratory results reported in paper PMC7681013, “Structure and kinetics of indole-3-glycerol phosphate synthase from Pseudomonas aeruginosa: Decarboxylation is not essential for indole formation” (The Journal of Biological Chemistry, 2020).

Substrate: O=C(CNc1ccccc1)[C@H](O)[C@H](O)COP(=O)(O)O
Test: discontinuous spectrophotometric assay of IGP formation (A278)
Assay type: biochemical, Pseudomonas aeruginosa
Conditions: 50 mM Tris-HCl, 4 mM MgCl2, 0.5 mM TCEP, pH 7.0, 25 °C, substrate made enzymatically in situ from aniline and PRPP, 2.5 μM enzyme

B1: PaIGPS (Pseudomonas aeruginosa PAO1) (protein)
chain: MSVPTVLQKILARKAEEVAERRARVNLAEVERLARSADAPRGFANALLERAKRKEPAVIAEIKKASPSKGVLREHFVPAEIARSYEAGGAACLSVLTDVDFFQGADAYLKEARAACALPVIRKDFMIDPYQIVEARAIGADCILLIVSALDDVLMAELAATAKSVGLDVLVEVHDGTELERALKTLDTPLVGINNRNLHTFEVSLETTLDLLPEIPRDRLVVTESGILNRADVELMEVSEVYAFLVGEAFMRADDPGLELKRLFFQERGAVVLGADPD
- Km: 180 ± 50 µM
- kcat: 0.00442 ± 0.000389 s⁻¹
